Reference: US20080207488A1, “Method for Detecting Peptides Comprising a Cross-B Structure” (priority 2005, published 2008)

Tests used:
[1] = Thioflavin T fluorescence; format: physicochemical
Protocol: Fluorescence of ThT-protein/peptide adducts was measured as follows. […] Fluorescence was measured at 485 nm upon excitation at 435 nm. Background signals from buffer, buffer with ThT and protein/peptide solution without ThT were subtracted from corresponding measurements with protein solution incubated with ThT. […] Fluorescence was measured in triplicate on a Hitachi F-4500 fluorescence spectrophotometer (Ltd., Tokyo, Japan).
Formulated protein therapeutics were obtained from the local hospital pharmacy and were used as supplied by the manufacturers. […] Lyophilized therapeutics were dissolved according to the manufacturers recommendations. […] Enhancement in fluorescence of ThT and Congo red was measured with all formulated protein therapeutics. […]
To prepare structurally altered ovalbumin (OVA) with amyloid cross-β structure conformation, purified OVA (Sigma, A-7641, lot 071k7094) was heated to 85° C. […] Native OVA (nOVA) and heat-denatured OVA (dOVA) were tested in the ThT fluorescence assay and in the Plg-activation assay. In the fluorescence assay and in the Plg-activation assay, 25 and 100 μg ml^−1 nOVA and dOVA were tested, respectively. […] In the ThT-fluorescence assay 25 μg ml^−1 nMSA and alkyl-MSA were tested, and in the Plg-activation assay 100 μg ml^−1 was tested. The presence of aggregates or fibrils was analyzed using TEM. […]

Balb/c mice [2] = assay: Immunization of Balb/c mice with ovalbumin and amyloid-like ovalbumin; format: in vivo; conditions: without adjuvant
Protocol: Eight to ten weeks old female Balb/c mice are immunized with OVA according to two immunization regimes (Central Animal Laboratories, Utrecht University, The Netherlands). Pre-immune serum was collected prior to the immunizations. In one regime two groups of five mice were subcutaneously injected five consecutive days per week, for three consecutive weeks. Doses comprised 10 μg native OVA or heat-denatured OVA for each injection. Alternatively, according to the second protocol, three groups of five mice were injected once intraperitoneally with doses comprising 5 μg nOVA, 5 μg OVA or 5 μg native OVA mixed 1:1 with complete Freund's adjuvant (CFA). Each week, blood was taken. After three weeks, a second dose was given. Incomplete Freund's adjuvant (IFA) was used instead of CFA. Blood was taken after one week after the start of the immunization. Antibody titers in sera were determined and sera were analyzed for the presence of cross-β structure conformation specific antibodies. For this purpose, nOVA was coated onto wells of 96-wells ELISA plates and incubated with dilution series of sera. Sera of the groups of five mice were pooled prior to the analyses. Plates were washed and subsequently incubated with peroxidase-conjugated rabbit anti-mouse immunoglobulins (RAMPO, P0260, DAKOCytomation, Glostrup, Denmark). Plates were subsequently developed with tetramethylbenzidine (TMB) substrate. […]

[3] = molecular target: T1, human fibronectin finger 4,5 (Fn F4,5) fragment (Homo sapiens, UniProt P02751); assay: ELISA, binding of fibronectin F4,5 to coated (mis)folded proteins; conditions: coated protein, FIG. 7D-H
T1 construct: human fibronectin finger 4,5 (Fn F4,5) fragment; made in house; host or cells: HEK293E cells, transient transfection, protein purified from the medium
T1 sequence (P02751 182-276 limits assumed): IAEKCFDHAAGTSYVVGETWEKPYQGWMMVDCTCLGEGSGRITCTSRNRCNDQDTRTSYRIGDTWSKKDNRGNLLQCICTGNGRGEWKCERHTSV
Protocol: (§1) The plates were blocked using Blocking reagent (Roche 1112589). A dilution series of the protein of interest was applied to the coated proteins and wells were subsequently washed using TBS-T (50 mM Tris pH 7.3, 150 mM NaCl and 0.1% Tween20). Bound protein is detected by the FLAG-tag using 1:3000 anti-FLAG-HRP (Sigma A-8592) in PBS-T, or by 1:1000 Ni-NTA-HRP (Qiagen 34530) in PBS-T. The HRP reaction Is performed using the TMB substrate (Biosource 4501103 or Tebu Bio 101TMB100-500), stopped using 10% H2SO4 and absorbance was measured at 450 nm.

[4] = test system: human tissue-type plasminogen activator finger EGF (tPA F-EGF) fragment; assay: ELISA, binding of tPA F-EGF to coated (mis)folded proteins; conditions: coated protein, FIG. 7A, I
human tissue-type plasminogen activator finger EGF (tPA F-EGF) fragment, sequence (P00750 39-120 limits assumed): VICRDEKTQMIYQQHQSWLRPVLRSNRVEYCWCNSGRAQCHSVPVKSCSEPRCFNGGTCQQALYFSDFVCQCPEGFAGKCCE
Protocol: as §1

Balb/c mice [5] = assay: Immunization of mice with β2gpi preparations, serum binding to murine β2gpi; format: in vivo; conditions: 100-fold diluted sera
Protocol: Female BalB/C cAnNHSd (Harlan) 7-9 weeks were housed in filtertop cages in groups of 5 mice per group. After approximately one week of adjustment to the environment, pre-immune sera were drawn. On the start of the first week, mice were given either 100 μl plasma (150 μg/ml) β2-Glycoprotein 1,100 μl alkyl-β2-Glycoprotein I (150 μg/ml) or 100 μl of a mixture of 150 μg/ml of 82-Glycoprotein I with 9.33 μM cardiolipin (CL-β2gpi). This latter sample was prepared by pre-incubating 400 μg/ml of 62-GPI with 25 μM of cardiolipin vesicles for at least 10 minutes at RT after mixing the sample by pipetting; afterwards samples were diluted to 150 μg/ml. […] All dilutions were made freshly in TBS and kept on ice. Injections were given intravenously in the tail veins of the mice and given on Mondays and Fridays of the first and third week. Blood was drawn three days prior to the experiment, and on Wednesdays of week 2 and 4 by puncture of vena Saphena. Blood was collected in Easycollect tubes, with Z serum clot activator. Sera were prepared by centrifugation in a tabletop centrifuge, with a rotor diameter of 7 cm, at 3800 rpm for 10 minutes (slow start and stop) and stored at −20° C. before analysis.
In this way, it was determined whether immunizations of mice with human β2gpi elicits a humoral auto-immune response against murine β2gpi.

Balb/c mice [6] = assay: Immunization of mice with β2gpi preparations, titers against native human β2gpi; format: in vivo; conditions: four injections of 15 μg antigen
Protocol: Female BalB/C cAnNHSd (Harlan) 7-9 weeks were housed in filtertop cages in groups of 5 mice per group. After approximately one week of adjustment to the environment, pre-immune sera were drawn. On the start of the first week, mice were given either 100 μl plasma (150 μg/ml) β2-Glycoprotein 1,100 μl alkyl-β2-Glycoprotein I (150 μg/ml) or 100 μl of a mixture of 150 μg/ml of 82-Glycoprotein I with 9.33 μM cardiolipin (CL-β2gpi). This latter sample was prepared by pre-incubating 400 μg/ml of 62-GPI with 25 μM of cardiolipin vesicles for at least 10 minutes at RT after mixing the sample by pipetting; afterwards samples were diluted to 150 μg/ml. […]
Sera were analyzed for antibodies against unmodified native (coated) β2-GPI. […] Antibody titers were determined by adding pooled sera of each experimental group (n=5) in three-fold serial dilutions (starting from 1:30, 50 μl/well) to plates coated with native human β2gpi. […] The plates were stained for approximately 5 minutes using 100 μL/well of TMB substrate (Biosource Europe, Nivelles, Belgium), the reaction was stopped with 50 μL/well of 2 M H2SO4 and read at 450 nm on a Spectramax340 microplate reader. The absorbance values were plotted against log dilution. […] For comparison, the dilution that yielded a residual absorbance after background subtraction of 0.1 was arbitrarily taken as the titer of the various sera.

Molecule | ThT fluorescence enhancement of native and denatured proteins ([1]; 25 μg ml^−1) | anti-nOVA antibody titers in pooled sera (Balb/c mice [2]) | affinity of fibronectin F4,5 (detection anti-FLAG HRP) [3] | binding of tPA F-EGF [4] | Thioflavin T fluorescence of modified β2gpi ([1]; compared with native β2gpi) | titers against mouse self-β2gpi (Balb/c mice [5]) | humoral immune response compared to native β2gpi (Balb/c mice [6])
dOVA: ovalbumin heat-denatured at 85° C., amyloid-like (protein) GSIGAASMEFCFDVFKELKVHHANENIFYCPIAIMSALAMVYLGAKDSTRTQINKVVRFDKLPGFGDSIEAQCGTSVNVHSSLRDILNQITKPNDVYSFSLASRLYAEERYPILPEYLQCVKELYRGGLEPINFQTAADQARELINSWVESQTNGIIRNVLQPSSVDSQTAMVLVNAIVFKGLWEKAFKDEDTQAMPFRVTEQESKPVQMMYQIGLFRVASMASEKMKILELPFASGTMSMLVLLPDEVSGLEQLESIINFEKLTEWTSSNVMEERKIKVYLPRMKMEEKYNLTSVLMAMGITDVFSSSANLSGISSAESLKISQAVHAAHAEINEAGREVVGSAEAGVDAASVSEEFRADHPFLFCIKHIATNAVLFFGRCVSP | filtration through a 0.2 μm filter does not reduce the enhancement of ThT fluorescence | higher antibody titers | clear difference in binding affinity | Much lower binding |  |  | 
alkyl-β2gpi: reduced and alkylated human β2-glycoprotein I (protein, UniProt P02749 20-345, looked up, reduced and alkylated, reduced and alkylated human β2-glycoprotein I) Beta-2-glycoprotein 1: GRTCPKPDDLPFSTVVPLKTFYEPGEEITYSCKPGYVSRGGMRKFICPLTGLWPINTLKCTPRVCPFAGILENGAVRYTTFEYPNTISFSCNTGFYLNGADSAKCTEEGKWSPELPVCAPIICPPPSIPTFATLRVYKPSAGNNSLYRDTAVFECLPQHAMFGNDTITCTTHGNWTKLPECREVKCPFPSRPDNGFVNYPAKPTLYYKDKATFGCHDGYSLDGPEEIECTKLGNWSAMPSCKASCKVPVKKATVVYQGERVKIQEKFKNGMLHGDKVSFFCKNKEKKCSYTEDAQCIDGTIEVPKCFKEHSSLAFWKTDASDVKPC |  |  |  |  | enhanced Thioflavin T fluorescence | higher titers against mouse self-β2gpi | far higher humoral immune responses
